This note sets out measurements from publication PMC6043352 (Journal of molecular biology, 2018).

Assay [1] concerns the target T1, ubiquitin (UniProt P0CG47 1-76). Nature of the assay: ITC.
Assay [2] concerns the target T1, ubiquitin. Nature of the assay: NMR titration.

B1: human REV1 (932–1039) (domain or fragment, UniProt Q9UBZ9 932-1039, looked up)
chain: VPSPSQLDQSVLEALPPDLREQVEQVCAVQQAESHGDKKKEPVNGCNTGILPQPVGTVLLQIPEPQESNSDAGINLIALPAFSQVDPEVFAALPAELQRELKAAYDQR
With B1, the Kd (usually the free concentration of one partner at which half of the binding sites on the other are occupied at equilibrium, for simple one-to-one binding) is approximately 49 µM with ubiquitin [1] and approximately 27 µM with ubiquitin [2].
